{
  "source": "paper PMC5593947",
  "about": "(2017)",
  "binders": {"B1": {"name": "neutralizing monoclonal antibody 1D5 (antibody, V domains shown)", "VH": "EVQLVESGGGLVKPGGSLKLSCAASGFAFSTYDMSWVRQTPEKRLELVAHISSGGGYIYYPDTVKGRFTISRDNAKNTLYLQMSSLKSEDTAMYYCTRQKGLYYGFDYWGQGTTLTVSS", "VL": "DIVMTQSHKFMSTSVGDRVSITCKASQDVNTAVAWYQQRPGQSPKLLIYSASYRYTGVPDRFTGSGSGTDFTFTISSVQAEDLAVYYCQQHYTTPHTFGGGTKLEIK"}},
  "key": {"[1]": {"target": "T1, Coxsackievirus A6 (CVA6) A-particle (Coxsackievirus A6 strain TW-2007-00141)", "T1 chain 1": "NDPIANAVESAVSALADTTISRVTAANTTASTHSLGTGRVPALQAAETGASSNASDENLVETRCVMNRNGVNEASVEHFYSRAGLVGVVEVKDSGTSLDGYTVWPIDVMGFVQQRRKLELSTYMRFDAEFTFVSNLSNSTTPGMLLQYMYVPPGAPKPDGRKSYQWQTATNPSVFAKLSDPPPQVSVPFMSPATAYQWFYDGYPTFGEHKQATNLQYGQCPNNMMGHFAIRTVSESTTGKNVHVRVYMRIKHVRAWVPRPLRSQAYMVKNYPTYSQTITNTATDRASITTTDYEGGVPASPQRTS", "T1 chain 2": "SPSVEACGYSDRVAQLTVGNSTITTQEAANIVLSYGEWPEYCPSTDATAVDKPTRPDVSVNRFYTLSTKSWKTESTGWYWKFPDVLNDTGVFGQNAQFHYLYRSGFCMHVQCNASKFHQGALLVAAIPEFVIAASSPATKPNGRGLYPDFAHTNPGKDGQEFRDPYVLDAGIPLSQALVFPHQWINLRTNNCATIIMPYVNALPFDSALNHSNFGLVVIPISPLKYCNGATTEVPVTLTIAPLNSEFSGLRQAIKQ", "T1 chain 3": "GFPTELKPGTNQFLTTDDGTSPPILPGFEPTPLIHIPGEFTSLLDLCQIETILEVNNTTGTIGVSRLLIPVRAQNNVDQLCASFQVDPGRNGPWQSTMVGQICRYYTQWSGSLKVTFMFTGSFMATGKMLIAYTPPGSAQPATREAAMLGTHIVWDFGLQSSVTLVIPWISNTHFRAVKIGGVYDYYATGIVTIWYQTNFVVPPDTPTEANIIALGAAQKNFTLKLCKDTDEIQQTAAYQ", "test": "SPR"}, "[2]": {"target": "T1, Coxsackievirus A6 (CVA6) A-particle", "test": "SPR"}, "[3]": {"target": "T1, Coxsackievirus A6 (CVA6) A-particle", "test": "SPR"}, "[4]": {"target": "T2, Coxsackievirus A6 (CVA6) procapsid (Coxsackievirus A6 strain TW-2007-00141)", "T2 chain 1": "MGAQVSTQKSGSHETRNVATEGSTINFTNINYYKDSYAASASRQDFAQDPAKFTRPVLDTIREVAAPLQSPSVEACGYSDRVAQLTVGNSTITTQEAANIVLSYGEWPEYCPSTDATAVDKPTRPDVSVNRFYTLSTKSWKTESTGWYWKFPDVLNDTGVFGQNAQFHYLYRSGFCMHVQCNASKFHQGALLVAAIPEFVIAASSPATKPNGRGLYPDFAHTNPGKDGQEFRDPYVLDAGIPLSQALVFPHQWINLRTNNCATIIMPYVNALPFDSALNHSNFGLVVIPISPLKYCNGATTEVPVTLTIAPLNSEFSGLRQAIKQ", "T2 chain 2": "T1 chain 1", "T2 chain 3": "T1 chain 3", "test": "ELISA"}},
  "data": [
    {"binder": "B1", "values": [
      {"measurement": "Ka", "setting": "[1]", "value": "2.41e+08", "unit": "M⁻¹"},
      {"measurement": "koff", "setting": "[2]", "value": 0.000634, "unit": "s⁻¹"},
      {"measurement": "Kd", "setting": "[3]", "value": 4.14, "unit": "nM"},
      {"measurement": "EC50", "setting": "[4]", "value": 0.069, "unit": "µg/mL"}
    ]}
  ]
}
